Experimental data from paper PMC11228805.

Target: gp41 (Q567K/A582T/A532V/I535M/L543Q/K574R/S752F/I756F) of the HIV-1AD8 Tri FPPR Bam Envs with K574R (HIV-1 AD8)
Assay: gp120 shedding from virus particles

Substance: gp120 (Q114E) of the HIV-1AD8 Tri Bam, Tri FPPR Bam and Tri FPPR Bam-K574R Envs (natural protein)
- fold reduction of gp120 shedding against the Tri FPPR Bam Env: 3.9 fold

Substance: gp120 (Q114E/K59A) of the HIV-1AD8 Tri FPPR Bam-K59A and Tri FPPR Bam-K59A/K574R Envs (natural protein)
- fold resistance to gp120 shedding (CD4mc+cold) against the Tri Bam Env: 40 times
